This is an account of results in publication doi:10.1101/2020.12.07.415216.

Assay [1] deals with SARS-CoV RBD homotrimer (RBD appended onto a cystine-stabilized, hyperglycosylated GCN4 trimerization tag) (SARS-CoV) (UniProt P59594). The assay can be described thus: SDS-PAGE under non-reducing conditions.
Assay [2] addresses WIV1-CoV RBD homotrimer (RBD appended onto a cystine-stabilized, hyperglycosylated GCN4 trimerization tag) (WIV1-CoV). The assay can be described thus: SDS-PAGE under non-reducing conditions.

What is called stoichiometry N is the number of molecules, sites or subunits per partner or assembly. Turning to “SARS-CoV RBD homotrimer (RBD appended onto a cystine-stabilized, hyperglycosylated GCN4 trimerization tag) (from UniProt P59594)”, the stoichiometry N in assay [1] was 3.
In assay [2], “WIV1-CoV RBD homotrimer (RBD appended onto a cystine-stabilized, hyperglycosylated GCN4 trimerization tag)” returned a stoichiometry N of 3.
